From patent publication US20250042994A1 (HAINAN SIMCERE ZAIMING PHARMACEUTICAL, published 2025)

T1: human CD19 on Raji cells (human, UniProt P15391 20-556)
T1 construct: whole, on cells
T1 sequence (looked up): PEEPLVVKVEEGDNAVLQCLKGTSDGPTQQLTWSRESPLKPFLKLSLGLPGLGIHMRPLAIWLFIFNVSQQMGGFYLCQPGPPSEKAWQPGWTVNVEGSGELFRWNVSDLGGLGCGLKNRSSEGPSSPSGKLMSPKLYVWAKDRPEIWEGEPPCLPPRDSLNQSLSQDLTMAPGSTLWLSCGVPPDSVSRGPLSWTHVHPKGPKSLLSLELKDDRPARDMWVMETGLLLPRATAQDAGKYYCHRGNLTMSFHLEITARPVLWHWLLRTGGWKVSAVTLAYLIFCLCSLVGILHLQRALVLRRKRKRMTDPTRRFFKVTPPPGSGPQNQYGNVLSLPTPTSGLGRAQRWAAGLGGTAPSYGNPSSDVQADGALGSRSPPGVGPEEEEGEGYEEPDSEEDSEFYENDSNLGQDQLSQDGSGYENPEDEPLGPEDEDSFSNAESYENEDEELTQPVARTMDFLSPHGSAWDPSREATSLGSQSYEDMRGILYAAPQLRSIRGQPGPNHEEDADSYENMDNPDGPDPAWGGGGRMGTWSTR

T2: human CD19 on CHO-K1-human CD19 cells (human, UniProt P15391 20-556)
T2 construct: whole, on cells; also called CHO-K1-human CD19-2C8
T2 sequence (looked up): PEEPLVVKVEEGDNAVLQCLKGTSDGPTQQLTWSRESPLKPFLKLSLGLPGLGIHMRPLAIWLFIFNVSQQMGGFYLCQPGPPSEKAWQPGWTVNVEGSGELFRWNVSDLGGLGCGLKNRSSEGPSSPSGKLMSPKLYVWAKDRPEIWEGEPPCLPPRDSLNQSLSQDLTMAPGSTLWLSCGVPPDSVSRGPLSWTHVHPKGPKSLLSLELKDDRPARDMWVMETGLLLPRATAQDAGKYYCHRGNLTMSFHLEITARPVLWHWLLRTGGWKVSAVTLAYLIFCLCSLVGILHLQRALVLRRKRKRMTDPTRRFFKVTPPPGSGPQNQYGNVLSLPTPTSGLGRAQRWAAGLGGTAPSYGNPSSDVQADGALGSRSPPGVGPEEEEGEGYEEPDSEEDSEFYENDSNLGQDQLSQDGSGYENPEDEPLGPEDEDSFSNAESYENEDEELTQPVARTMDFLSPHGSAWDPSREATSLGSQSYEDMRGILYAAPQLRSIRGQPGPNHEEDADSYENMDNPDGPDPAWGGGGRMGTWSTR

T3: cynomolgus monkey CD19 on peripheral blood B cells (cynomolgus monkey (Macaca fascicularis), UniProt A0A2K5W8L9 20-557)
T3 construct: whole, on cells; also called cynomolgus monkey B cells
T3 sequence: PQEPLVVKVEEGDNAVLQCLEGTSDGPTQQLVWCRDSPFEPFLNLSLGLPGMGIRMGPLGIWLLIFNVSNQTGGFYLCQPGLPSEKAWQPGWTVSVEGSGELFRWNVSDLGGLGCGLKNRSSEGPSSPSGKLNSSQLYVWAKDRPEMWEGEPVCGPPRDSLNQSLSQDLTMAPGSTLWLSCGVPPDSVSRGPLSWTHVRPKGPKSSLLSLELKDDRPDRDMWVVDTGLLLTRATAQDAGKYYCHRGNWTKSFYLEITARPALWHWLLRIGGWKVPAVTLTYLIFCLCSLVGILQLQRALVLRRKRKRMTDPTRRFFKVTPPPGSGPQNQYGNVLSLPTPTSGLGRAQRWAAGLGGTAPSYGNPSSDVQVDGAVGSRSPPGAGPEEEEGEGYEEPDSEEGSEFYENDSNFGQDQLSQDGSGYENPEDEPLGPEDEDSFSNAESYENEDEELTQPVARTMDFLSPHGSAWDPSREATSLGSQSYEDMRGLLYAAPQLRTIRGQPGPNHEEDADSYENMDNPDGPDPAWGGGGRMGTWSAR

T4: human CD19 exon1-3-His tag protein (human, UniProt P15391 20-186, limits assumed)
T4 construct: membrane-distal part of the extracellular region, made in HEK293E cells; not shown: His tag
T4 sequence (looked up): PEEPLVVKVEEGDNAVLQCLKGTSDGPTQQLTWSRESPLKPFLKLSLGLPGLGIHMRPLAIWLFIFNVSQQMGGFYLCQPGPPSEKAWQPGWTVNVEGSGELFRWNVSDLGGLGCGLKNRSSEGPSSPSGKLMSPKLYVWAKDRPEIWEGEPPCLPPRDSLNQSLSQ

T5: Human CD19-his protein (human, UniProt P15391 20-291)
T5 construct: bought protein; also called recombinant human CD19-His; CD19 full-length protein; not shown: His tag
T5 sequence (looked up): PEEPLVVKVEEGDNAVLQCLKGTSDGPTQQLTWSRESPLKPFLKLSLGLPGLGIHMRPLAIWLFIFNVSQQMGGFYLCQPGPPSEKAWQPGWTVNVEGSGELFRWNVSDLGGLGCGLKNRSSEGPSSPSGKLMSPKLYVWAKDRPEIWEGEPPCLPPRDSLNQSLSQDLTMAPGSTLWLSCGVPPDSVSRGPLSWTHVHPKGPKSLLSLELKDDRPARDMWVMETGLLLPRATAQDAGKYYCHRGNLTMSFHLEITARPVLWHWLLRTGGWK


Experiments:
[1] = biological target: T1, human CD19 on Raji cells; assay: FACS on Raji cells
[2] = biological target: T2, human CD19 on CHO-K1-human CD19 cells; assay: FACS on CHO-K1-human CD19 cells
[3] = biological target: T6, monkey CD19 protein (monkey); assay: ELISA, coated monkey CD19 protein
T6 construct: also called monkey CD19-His protein
Description: (§1) Human CD19-his protein (purchased from ACROBiosystems, catalog number: CD9-H52H2) was diluted with PBS to a final concentration of 4 μg/mL, and then added to a 96-well ELISA plate at 100 μl/well. The plate was sealed with a plastic film and incubated overnight at 4° C., the plate was washed 2 times with PBS the next day, and then a blocking solution [PBS+2% (w/w) BSA] was added for blocking at room temperature for 2 h. The blocking solution was poured off, and 100 nM gradiently diluted CD19 chimeric antibody or control antibody was added at 50 μl/well. After incubation at 37° C. for 2 h, the plate was washed 3 times with PBS. […] TMB substrate was added at 50 μl/well, and incubated at room temperature for 10 min, and then a stop solution (1.0 N HCl) was added at 50 μl/well. The OD450 nm values were read by an ELISA microplate reader (Multimode Plate Reader, EnSight, purchased from Perkin Elmer).
(§2) In order to detect the species cross-binding activity of the chimeric antibodies, an ELISA plate was coated with commercial murine CD19 (ACROBiosystems, catalog number: 50510-M08H) and monkey CD19 (ACROBiosystems, catalog number: 90051-C08H), respectively, and the ELISA detection was performed according to the method in example 5.1.

[4] = biological target: T7, monkey CD19 on HEK293T-monkey CD19 cells (monkey); assay: FACS on HEK293T-monkey CD19 cells
T7 construct: whole, on cells
How it was run: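 Antibody binding was read as MFI by flow cytometry and EC50 was taken from curve fitting. Before that, cells at 2×10⁶ cells/ml in PBS with 2% (w/w) BSA were exposed to samples for 2 h on ice and washed. Parental HEK293T cells were tested the same way.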

[5] = biological target: T3, cynomolgus monkey CD19 on peripheral …; assay: FACS, cynomolgus PBMC, CD20+ B cells
[6] = biological target: T6, monkey CD19 protein; assay: ELISA on coated monkey CD19-His
Description: as §1, §2

[7] = biological target: T4, human CD19 exon1-3-His tag protein; assay: ELISA on coated human CD19 exon 1-3-His
[8] = biological target: T8, monkey CD19-His protein (monkey); assay: SPR Biacore, method of example 7.1, monkey CD19-His
T8 construct: bought protein; also called monkey CD19 protein
Description: A sample buffer and a running buffer were HBS-EP+ (10 mM HEPES, 150 mM NaCl, 3 mM EDTA and 0.05% surfactant P20) (GE Healthcare; BR-1006-69). The flow-through cell was set to 25° C. The sample block was set to 16° C. Both were pretreated with the running buffer. In each cycle, an antibody to be detected was first captured with a Protein A chip, and then a single concentration of CD19 antigen protein was injected. The binding and dissociation processes of the antibody and the antigen protein were recorded, and finally Glycine pH 1.5 (GE Healthcare; BR-1003-54) was used to complete chip regeneration. The binding was measured by injecting different concentrations of recombinant human CD19-His proteins in a solution for 240 s with a flow rate of 30 μl/min. The concentration started from 200 nM (see the detailed results for the actual concentration in the test) and was diluted at 1:1, making a total of 5 concentrations. The dissociation phase was monitored for up to 600 s and was triggered by switching from sample solution to running buffer. The surface was regenerated by washing with a 10 mM glycine solution (pH 1.5) for 30 s at a flow rate of 30 μl/min. Bulk refractive index difference was corrected by subtracting the response obtained from the goat anti-human Fc surface. Blank injection was also subtracted (=double reference). For calculation of apparent KD and other kinetic parameters, Langmuir 1:1 model was used.
According to the method in example 7.1, the affinity of the chimeric antibodies to monkey CD19 (ACROBiosystems, catalog number: 90051-C08H) protein was determined.

[9] = biological target: T5, Human CD19-his protein; assay: SPR Biacore, Ab captured on Protein A, CD19-His analyte
How it was run: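 Apparent KD came from a Langmuir 1:1 fit of double-referenced sensorgrams. Recombinant human CD19-His analyte (top 200 nM, 1:1 serial dilution, 5 concentrations) flowed over Protein A-captured antibody for 240 s at 30 μl/min, then buffer for up to 600 s. Running buffer HBS-EP+ at 25 °C; regeneration with 10 mM glycine pH 1.5.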

| EC50 [1] [nM] | Maximum mean fluorescence intensity [1] | EC50 [2] [nM] | Maximum mean fluorescence intensity [2] | OD450 at 0.0001 nM [3] [OD450] | OD450 at 0.001 nM [3] [OD450] | OD450 at 0.01 nM [3] [OD450] | OD450 at 0.10 nM [3] [OD450] | OD450 at 1.00 nM [3] [OD450] | OD450 at 10 nM [3] [OD450] | OD450 at 100 nM [3] [OD450] | EC50 [4] [nM] | Maximum mean fluorescence intensity [4] | Proportion of chimeric antibody positive cells to B cells (%) at 1 nM [5] [%] | Proportion of chimeric antibody positive cells to B cells (%) at 10 nM [5] [%] | Proportion of chimeric antibody positive cells to B cells (%) at 100 nM [5] [%] | EC50 (read off the curve) [6] [nM] | Binder | also measured |
| --- | --- | --- | --- | --- | --- | --- | --- | --- | --- | --- | --- | --- | --- | --- | --- | --- | --- | --- |
| 23.4 | 16600 | 14.7 | 46600 | 0.06 | 0.06 | 0.06 | 0.12 | 0.71 | 1.25 | 1.16 | 13 | 80600 | 12 | 34 | 76 | ~0.8 | F5.11.2 (antibody, human IgG1, V domains shown, human-murine chimeric antibody, human IgG1) VH: EVQLVESGGDLVKPGGSLKLSCAASGFTFSSYGMSWVRQTPDKRLEWVATISHGGSYTHYPDSVKGRFTISRDNAKNTLYLQMNSLKSEDTAMYYCVRLPITTVEAPYFFDYWGQGTTLTVSS VL: DIQMTQTTSSLSASLGDRVTISCRASQDIRNYLNWYQQKPDGTVKLLIYYTSILHSGVPSRFSGSGSGTDYSLTINNLEQEDVATYFCQQGNTLYTFGGGTEVELR |  |
| 1.62 | 27400 | 3.13 | 4990 | 0.07 | 0.11 | 0.38 | 1.48 | 2.27 | 2.51 | 2.49 | 6.45 | 179000 | 4 | 18 | 56 | ~0.07 | F3.77.6 (antibody, human IgG1, V domains shown, human-murine chimeric antibody, human IgG1) VH: EFQLQQSGPELVKPGASVKISCKASGYSFTDYNMNWVKQSNGKSLEWIGTINPNYITSYNQKFKGKATLTVDQSSSTAYMQLNSLTSEDSAVYYCAGDYKGYWGQGTTLTVSS VL: not shown |  |
|  |  |  |  |  |  |  |  |  |  |  |  |  |  |  |  |  | F3.77.6 (antibody, human IgG1, V domains shown, human-murine chimeric antibody, human IgG1 constant) VH: EFQLQQSGPELVKPGASVKISCKASGYSFTDYNMNWVKQSNGKSLEWIGTINPNYITSYNQKFKGKATLTVDQSSSTAYMQLNSLTSEDSAVYYCAGDYKGYWGQGTTLTVSS VL: not shown | EC50 (read off the curve) [7]: ~0.1 nM; Kd [8]: 0.00759 nM; koff [8]: 1.4e-07 s⁻¹; kon [8]: 18400 M⁻¹ s⁻¹; Kd [9]: 2 nM; koff [9]: 0.000169 s⁻¹; kon [9]: 84400 M⁻¹ s⁻¹ |
